# According to PMC10512467, “Alternative splicing of a single exon causes a major impact on the affinity of Caenorhabditis elegans tropomyosin isoforms for actin filaments” (Frontiers in Cell and Developmental Biology, 2023):
# Molecular target: F-actin (actin purified from rabbit muscle acetone powder) (rabbit, UniProt P68135 1-377)
# Test: co-sedimentation; F-actin co-sedimentation (supernatant depletion): constant 2 uM LEV-11 isoform with 0-60 uM F-actin, 1 h, in F-buffer (0.1 M KCl, 2 mM MgCl2, 20 mM HEPES-KOH, pH 7.5, 1 mM dithiothreitol); 200,000 x g for 20 min; bound portion from the depletion of the supernatant, SDS-PAGE densitometry
# Settings: both partners purified
binder,measurement,value
"LEV-11T (C. elegans low-molecular-weight tropomyosin isoform, exons E3b-E4a-E5a-E6-E7b-E8-E9b), recombinant with extra Ala-Ser after the initiator Met (natural protein) MASSKVNKEGAQQTSLLDVLKKKMRQAREEAEAAKDEADEVKRQLEEERKKREDAEAEVAALNRRIVLVEEDLERTEDRLKTATSKLEQATKAADEADRARKSMETRSQQDEERANFLETQVDEAKVIAEDADRKYEEVARKLAMVEADLERAEERAEAGENKIVELEEELRVVGNNLKSLEVSEEKALQREDSYEEQIRTVSSRLKEAETRAEFAERSVQKLQKEVDRLEELRDAEVLKARQLQDELDHMVQELNSV",Kd,3.7 µM
